Experimental data: the supplement of paper PMC9876800

Tested on: peptide library, one residue held at a place counted from the S/T acceptor
Test: relative phosphorylation of the sub-library (ratio to the mean residue at this position); higher = residue favoured
Details: human
In short: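 Purified recombinant kinases, either human or orthologue constructs, were incubated in 384-well plates with biotinylated degenerate peptide sub-libraries. Each sub-library fixed one residue at one position around a central Ser/Thr. Peptides at 50 μM and 50 μM ATP spiked with γ-32P-ATP were used for 90 min under kinase-specific conditions, and spots on streptavidin membranes were phosphorimaged and quantified by densitometry. Relative sub-library phosphorylation is expressed as a ratio to the mean residue at that position.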

Sequence of NUAK1, construct: Full length (O60285 whole entry, looked up): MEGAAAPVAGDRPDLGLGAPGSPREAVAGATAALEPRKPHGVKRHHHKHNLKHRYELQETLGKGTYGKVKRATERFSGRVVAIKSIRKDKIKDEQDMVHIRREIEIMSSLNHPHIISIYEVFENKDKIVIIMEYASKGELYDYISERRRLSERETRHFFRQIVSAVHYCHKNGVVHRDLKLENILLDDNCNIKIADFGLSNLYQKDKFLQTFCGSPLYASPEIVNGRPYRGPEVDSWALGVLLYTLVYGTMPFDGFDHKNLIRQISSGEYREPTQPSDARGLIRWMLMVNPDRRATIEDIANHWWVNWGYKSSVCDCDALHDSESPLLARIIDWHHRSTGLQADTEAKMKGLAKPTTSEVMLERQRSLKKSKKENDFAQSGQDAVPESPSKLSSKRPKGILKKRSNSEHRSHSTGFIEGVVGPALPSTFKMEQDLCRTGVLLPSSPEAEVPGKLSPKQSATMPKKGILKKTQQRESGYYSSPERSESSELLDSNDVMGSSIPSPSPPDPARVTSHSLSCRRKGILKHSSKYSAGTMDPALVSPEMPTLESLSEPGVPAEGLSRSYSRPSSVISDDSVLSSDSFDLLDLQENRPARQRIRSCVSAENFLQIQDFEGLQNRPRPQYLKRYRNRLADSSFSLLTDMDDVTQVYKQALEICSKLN
Sequence of OXSR1, construct: Full length (O95747 whole entry, looked up): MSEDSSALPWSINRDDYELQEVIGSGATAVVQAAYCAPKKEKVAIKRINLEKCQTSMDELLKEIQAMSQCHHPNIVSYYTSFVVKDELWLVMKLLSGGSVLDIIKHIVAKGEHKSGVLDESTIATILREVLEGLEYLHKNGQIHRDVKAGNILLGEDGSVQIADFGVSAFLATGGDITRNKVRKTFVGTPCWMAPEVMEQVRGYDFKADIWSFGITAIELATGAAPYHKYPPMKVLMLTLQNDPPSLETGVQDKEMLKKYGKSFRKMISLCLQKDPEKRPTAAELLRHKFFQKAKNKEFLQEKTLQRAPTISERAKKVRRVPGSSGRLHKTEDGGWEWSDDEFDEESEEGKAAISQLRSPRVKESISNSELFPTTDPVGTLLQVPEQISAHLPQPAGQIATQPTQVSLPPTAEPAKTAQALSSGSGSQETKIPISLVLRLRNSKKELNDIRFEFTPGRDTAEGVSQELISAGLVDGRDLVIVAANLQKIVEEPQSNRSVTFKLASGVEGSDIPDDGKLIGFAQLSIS
Sequence of PBK, construct: Full length (Q96KB5 whole entry, looked up): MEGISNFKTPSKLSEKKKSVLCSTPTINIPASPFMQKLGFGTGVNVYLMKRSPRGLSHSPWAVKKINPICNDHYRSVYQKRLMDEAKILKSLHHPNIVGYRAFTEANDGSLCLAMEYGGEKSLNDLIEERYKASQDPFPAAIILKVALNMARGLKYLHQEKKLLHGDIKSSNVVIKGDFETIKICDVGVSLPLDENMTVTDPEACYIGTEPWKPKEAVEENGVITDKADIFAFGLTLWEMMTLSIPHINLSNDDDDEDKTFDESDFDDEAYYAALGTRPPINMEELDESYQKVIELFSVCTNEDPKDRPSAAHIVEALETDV

NUAK1, construct: Full length (from UniProt O60285)
relative phosphorylation
Details	at +1	at +2	at +3	at +4	at -1	at -2	at -3	at -4	at -5
A fixed	0.726	0.749	0.566	0.716	1.14	1.47	0.552	1.04	0.835
D fixed	0.449	0.564	0.844	0.464	0.661	0.734	0.4	0.474	0.611
E fixed	0.545	0.312	0.418	0.359	0.488	0.532	0.397	0.867	0.436
F fixed	2.2	0.695	1.33	1.13	0.475	0.586	0.472	0.91	1.12
G fixed	0.839	1.15	0.566	0.81	1.27	0.931	0.454	0.673	0.609
H fixed	0.927	1.14	1.56	1.08	0.951	0.821	1.12	0.995	0.772
I fixed	0.559	1.16	0.888	1.76	0.261	0.557	0.322	0.792	2.04
K fixed	1.19	1.09	1.22	1.01	2.27	0.955	2.72	1.16	1.2
L fixed	0.666	1.19	0.907	2.45	0.613	0.489	0.395	1.12	2.08
M fixed	1.1	1.17	1.08	1.69	0.937	0.837	0.598	1.56	1.33
N fixed	1.2	1.52	1.53	0.786	1.58	4.11	0.691	0.776	0.631
P fixed	0.483	0.753	0.434	0.765	1.63	0.53	0.665	0.929	0.727
Q fixed	1.72	0.954	1	0.743	1.37	1.51	0.786	0.934	0.582
R fixed	1.25	1.7	0.909	0.617	1.6	0.926	6.15	1.41	1.24
V fixed	0.687	1.02	0.735	0.947	0.375	0.864	0.288	0.924	1.21
W fixed	0.935	0.929	1.58	0.809	0.571	0.583	0.521	1.54	0.775
Y fixed	1.51	0.889	1.42	0.869	0.822	0.554	0.468	0.891	0.802
pThr fixed	0.684	0.497	0.396	0.362	0.291	0.397	0.352	0.518	0.373
pTyr fixed	0.597	0.273	0.337	0.346	0.746	0.419	0.445	0.438	0.547

OXSR1, construct: Full length (from UniProt O95747)
relative phosphorylation
Details	at +1	at +2	at +3	at +4	at -1	at -2	at -3	at -4	at -5
A fixed	0.587	0.646	1.07	1	0.862	0.695	0.845	1.05	1.23
D fixed	0.346	0.325	0.493	0.683	1.83	1.34	1.26	1.9	1.83
E fixed	0.382	0.249	0.487	0.666	1.19	1.31	1.27	1.8	1.52
F fixed	1.08	0.495	0.574	0.702	0.643	0.693	0.48	0.722	0.76
G fixed	0.509	1.09	1.42	1.37	0.801	1.31	1.17	1.41	1.4
H fixed	1.21	3.55	1.17	1.07	1.67	1.43	1.57	1	0.976
I fixed	1.69	0.541	0.443	0.596	0.447	0.333	0.36	0.329	0.386
K fixed	0.838	1.25	2.23	1.93	0.975	0.584	0.783	0.964	1.06
L fixed	1.14	0.459	0.531	0.634	0.931	0.432	0.384	0.416	0.519
M fixed	1.36	0.76	0.613	0.78	0.968	0.531	0.51	0.633	0.581
N fixed	0.689	1.18	1.1	0.947	1.64	1.69	2.04	1.14	0.96
P fixed	0.351	0.677	1.47	1.29	0.494	0.673	1.3	1.22	1.4
Q fixed	1.06	1	0.907	1.06	0.987	1.61	1.18	1.09	0.757
R fixed	1.04	2.08	2.47	1.7	1.33	0.677	0.846	0.994	1.12
V fixed	1.53	0.678	0.556	0.63	0.446	0.378	0.552	0.535	0.549
W fixed	1.99	0.782	0.72	1.09	0.706	0.84	0.663	0.864	0.852
Y fixed	1.2	1.23	0.739	0.856	1.09	2.46	1.79	0.937	1.11
pThr fixed	0.911	0.562	0.699	0.507	0.94	1.06	1.43	1.49	1.46
pTyr fixed	0.769	0.428	0.728	0.82	2.18	1.52	1.41	1.53	1.82

PBK, construct: Full length (from UniProt Q96KB5)
relative phosphorylation
Details	at +1	at +2	at +3	at +4	at -1	at -2	at -3	at -4	at -5
A fixed	1.09	1.14	1.03	1.16	1.08	0.848	1	1.04	1.29
D fixed	0.572	0.524	0.634	0.644	0.384	0.427	0.364	0.545	0.576
E fixed	0.364	0.523	0.604	0.608	0.397	0.382	0.37	0.534	0.491
F fixed	0.394	0.849	0.728	0.848	0.814	1.47	1.57	1.07	0.756
G fixed	7.99	1.17	1.69	1.23	1.25	0.76	0.673	1.11	1
H fixed	0.527	1.11	1.2	0.777	1.48	1.06	0.965	1.16	1.41
I fixed	0.386	0.928	0.641	0.976	0.394	1.07	0.587	0.563	0.733
K fixed	0.475	0.775	1.25	1.2	1.37	1.7	1.49	1.23	1.38
L fixed	0.52	1.04	0.907	1.05	0.719	1.07	0.691	0.669	0.723
M fixed	0.93	1.29	0.717	0.98	1.06	1.09	0.845	0.826	0.833
N fixed	0.658	0.913	1.05	0.855	1.09	0.678	0.625	0.991	0.981
P fixed	0.592	1.38	1.69	1.56	1.06	0.878	0.872	1.16	0.914
Q fixed	0.53	0.802	0.954	0.845	1.55	0.685	0.707	0.856	0.77
R fixed	0.535	0.829	1.24	1.05	1.81	1.23	1.98	1.56	1.99
V fixed	0.476	1.37	0.956	0.983	0.517	0.932	0.709	0.642	0.777
W fixed	0.552	1.45	0.816	1.17	0.76	1.57	1.89	2.04	1.55
Y fixed	0.406	0.891	0.9	1.07	1.27	1.14	1.66	1.01	0.812
pThr fixed	0.348	0.618	0.721	0.507	0.317	0.586	0.638	0.803	0.703
pTyr fixed	0.287	0.497	0.574	0.529	0.537	0.508	0.554	0.703	0.576
